Values of other authors in patent US20100233200A1, “VECTOR ENCODING THERAPEUTIC POLYPEPTIDE AND SAFETY ELEMENTS TO CLEAR […]” (priority 2007, published 2010).

Tested on: human tmpk
Conditions: relative to wild-type tmpk; cited from earlier work

Molecule | enzymatic activity (dTMP to dTDP or AZT-MP to AZT-DP)
R200A mutant: modified human tmpk, SEQ ID NOS: 15 and 16 (protein) MAARRGALIVLEGVDRAGKSTQSRKLVEALCAAGHRAELLRFPERSTEIGKLLSSYLQKKSDVEDHSVHLLFSANRWEQVPLIKEKLSQGVTLVVDRYAFSGVAFTGAKENFSLDWCKQPDVGLPKPDLVLFLQLQLADAAKRGAFGHERYENGAFQERALRCFHQLMKDTTLNWKMVDASKSIEAVHEDIRVLSEDAIATATEKPLGELWK | superior enzymatic activity
F105Y mutant: modified human tmpk, SEQ ID NO: 11, SEQ ID NO: 21 (protein, UniProt P23919 2-212, looked up, variant F105Y) Thymidylate kinase: AARRGALIVLEGVDRAGKSTQSRKLVEALCAAGHRAELLRFPERSTEIGKLLSSYLQKKSDVEDHSVHLLFSANRWEQVPLIKEKLSQGVTLVVDRYAFSGVAYTGAKENFSLDWCKQPDVGLPKPDLVLFLQLQLADAAKRGAFGHERYENGAFQERALRCFHQLMKDTTLNWKMVDASKSIEAVHEDIRVLSEDAIRTATEKPLGELWK | superior enzymatic activity
